Drawing on paper PMC10618197, this text covers fluorescence AUC of the OMV peak normalized to the UV AUC and SpT-CF band fluorescence normalized to the OmpF band for 1 substance.

Assay [1] has as its target HbpD-SpyCatcher fusion protein displayed on the OMV surface (not stated | Streptococcus pyogenes). The experiment in a line: SEC; 10 µM SpT-CF incubated with OMV isolates for 24 h at 4 °C; SEC-HPLC on Sepharose CL-4B in PBS pH 7.4; AUC of the OMV peak of the fluorescent chromatogram normalized to the AUC of the corresponding UV peak.
Assay [2] addresses AIDA-SpyCatcher fusion protein displayed on the OMV surface (Streptococcus pyogenes | not stated). Described as above.
In assay [3] the target is HbpD-SpyCatcher fusion protein displayed on the OMV surface (not stated | Streptococcus pyogenes). Briefly: SDS-PAGE with in-gel fluorescence of the covalent adduct; 10 µM SpT-CF incubated with OMV isolates for 24 h at 4 °C; fluorescence of the specific band normalized to the OmpF band after PageBlue staining; 3 separate OMV isolates for each plasmid.
For assay [4], the target named is AIDA-SpyCatcher fusion protein displayed on the OMV surface (Streptococcus pyogenes | not stated). The assay is described as above.

Turning to “carboxyfluorescein coupled SpyTag (peptide)”, the results for the fluorescence AUC of the OMV peak normalized to the UV AUC in assay [1] and in assay [2] were 2.25 AU and 6.86 AU, respectively. The SpT-CF band fluorescence normalized to the OmpF band is 4.15 AU in assay [3] and 6.55 AU in assay [4].
